According to a protein production outcome set (Wang et al. 2014):

Experiment: label from the status in PepcDB records

For “IPELKDHLRIFRPRKLTLKGYRQHWVVFKETTLSYYKSQDEAPGDPIQQLNLKGCEVVPDVNVSGQKFCIKLLVPSPEGMSEIYLRCQDEQQYARWMAGCRLASKGRTMADSSYTSEVQAILAFLSLQRT”, the protein production was “not failed”.

For “EELEYKGMNTLQISNVDDLISFYQYADDRIPLISGHRGGRGKGYPENSMETFENTLSYTPATFEIDPRLTKDSVIVLFHDDTLERTSNGTGKVSDYTWEELQNFRLKDPEGNITNYRIPTLEEAIRWARGKTILILDKKDVPMERTAQLITDMQAEPYVMITVHDGASARFFYEKNPNFMFEAFVKTKEAVQDYEDNGIPWSHIMAYVGPKITPEVREVIDMLHERGVMCMISTAPSDDKLSTPESRAEAYRMIIRQGVDIIESDRPIEVAEAISSLIPVSSSKGKFFSTL”, the protein production was “not failed”.

With “MSLLESIAVVINLLGVWLTARRIRWCWPVGIVAVALYAWLFYQWKLYSDMLLQGVYVLTQLYGWWHWQPGTAADTRIRPLPMPSAERWLSLGIGAAFAATLGAYMHYRTDAVLPWLDAALASFSLVASVWAARKRIANWVLWIVLDCVYVGVFISKGLYPTAVLYAGFVALAVYGWHSWKTQQNQNLAVAR” the protein production was “failed”.

In the case of “MVNGSPHEKGCTYTALTEVAKTLNEEGIDTEIFWIGKKPLTGCTACKSCTKTGRCAFNDRANDFLDIAKGADGFIFGSPVHYASATGAITSFMDCVFYSDLLGGRQSFYLKPAATVISARRAGTTTTFDQLNKYFTLSEMPVISSRYWNMVHGAKPEDVKKDLEGLQIMRVLARNMAWFLKCKEAGMKAGVPLPVKEERMSTNFIRE”, the protein production is reported as “failed”.

In the case of “MELKHGYYHLIAILTVAIWGLTFISTKVLINHGLTPQEIFFYRFLIAYLGIWVISPKRLFTNNWQDELWLVAGGIFGGSLYFFTENTALGITQASNVSFIICTAPLLTTILSLLFYKSEKASKGLIYGSLLALMGVGLIVFNGSFVLKISPIGDLLTLLAALSWAFYSLIIKKMAGRYPTIFITRKIFFYGVLTILPAFLLHPLHPDTAVLLQPAVLFNLLFLAVLASLICYVLWNVVLKQLGTVRASNYIYLNPLVTMIASFLILDEKITLVALGGAACIVCGVYWAEKK”, the protein production is reported as “failed”.

With “MSSNPTSSVREFEYKAEMKQLLNLIVHSLYTHPEIFLRELISNASDALGKARFRMLSSDEGLDKSGDLKITITVDKESGSFVIEDTGIGMSEEELISNLGTVASSGTLGFMEALKEQQKEGQRLDANLIGQFGVGFYSVFMVTDEVTVETKSIESGLQGWRWKSSGQGSYTIEPVEREARGTRISFILKEEFREFAQEYRVEQIIKKYSNFVEYPIYIGSRQINSMTALWQRPKSELKQEEVNEFYKFIANDFKDPLDYLHVSVEGAVSFKALLFIPSEAPMELLYNQGALEKRGPQLYVKKVLIQHECRDLLPEYLRFVSGVVDTEDLPLNVSRELVQASPVMAKIKQILTTKLLGWFDTIAKEEPEKFRAFYKAFGTILKIGLNTDFTNRDKLIDLLRFETTKTVEGEYVTLKEYVGRMAEGQTEIYYHSGSSRAQMLAHPNLEYFRKRDIEVLLLSDPVDVFVIPSIFEYDKKPLKSIEKAEIDMSTVEPEGERLSAEGTVGVISLFKEVLGERVADVVESRRLVSSPVTLVSGKDALDSQFEKMMKMMNKDADMPSTKKILEINTAHPIIRNLAGKHAVGLSTDPVVRAAVTQLFESALLLEGDLESVADYVSRMNELVEAATRS” the protein production was “failed”.

With “MSEPVSSATVLAGGLMGASVFGLATGTDYGVVFGAFAGSVFYVATATNIGRIRLVAYFITSFIVGVLGAGLIGTKLAAITHYEKPLDALGAVIISAMCIKFLTFLNSQDLNTLFSILSRIRGGGSDGSK” the protein production was “failed”.

For “MKKSSILILIIICLVGCKKGSNETTITGEIKGLGTDTLYLYGMDELYDRIDTIYVENDKFSYTTSVDTITSAYLLLKNRIEYPVFLDKGNKIKIKGDTINLNFLTISGNIYNEEFTDFQKALEDPADPSEKAGEETVDKRITVEKANTAEEMAEEFILQHHSSYVSLYLLDKYFVQKETPDFSKIKKLVEVMTGVLQDKPYIERLNETITQAEKSEIGKYAPFFSLPNAKGEKITRSSDAFKQKSLLINFWASWNDSISQKQSNSELREIYKKYKKNKYIGMLGISLDVDKQQWKDAIKRDTLDWEQVCDFGGLNSEVAKQYSIYKIPANILLSSDGKILAKNLRGEELKKKIENIVEEATEKEKKNKQKK”, the protein production was “failed”.

For “MNIQAIDTRHGTANQHSFSNGNCLPYTGVPFGMNFYAPQTTDQKGSWWFHPEDRTFQGYRVTHQPSPWMGDFSHLLMTPVSGSLSELSLFHAQSSYRPEESLFSPVEINLTQLRYQITSQLIPSMYGGILTIDYQQKDNHLLLTLPGRYQVKQLDDHQVAVKVINYSGCEDPDFSFYFVLHFEQPLTKWFAPSSGLEHHHHHH”, the protein production was “failed”.

With “MPKKRENRGRRKGDKGHVGYISCDQCGARVPEDKAVCVTKMYSPVDASLASELEKKGAIIARYPVTKCYCVNCAVFLGIIKIRAENERKQKARLRLEHHHHHH” the protein production was “failed”.

With “MFLGEDYLLTNRAAVRLFNEVKDLPIVDPHNHLDAKDIVENKPWNDIWEVEGATDHYVWELMRRCGVSEEYITGSRSNKEKWLALAKVFPRFVGNPTYEWIHLDLWRRFNIKKVISEETAEEIWEETKKKLPEMTPQKLLRDMKVEILCTTDDPVSTLEHHRKAKEAVEGVTILPTWRPDRAMNVDKEGWREYVEKMGERYGEDTSTLDGFLNALWKSHEHFKEHGCVASDHALLEPSVYYVDENRARAVHEKAFSGEKLTQDEINDYKAFMMVQFGKMNQETNWVTQLHIGALRDYRDSLFKTLGPDSGGDISTNFLRIAEGLRYFLNEFDGKLKIVLYVLDPTHLPTISTIARAFPNVYVGAPWWFNDSPFGMEMHLKYLASVDLLYNLAGMVTDSRKLLSFGSRTEMFRRVLSNVVGEMVEKGQIPIKEARELVKHVSYDGPKALFFG” the protein production was “not failed”.

For “MYTENTGKHHRNGLPVWLLPLLVVISFWGVSQNIMVVDASSSVTVLPGNGGTLPLVNQLVIKQNDTALQGITNNAGDRGSLTPKNGAQRVLIHKVKDSDTITSTYGTVGTFHGQEVTAKVTISHIKVHDDSHKAPSGMKQTDGAFQIGPGFSSDTTMSNVAQFNVSYEFYYADTHAAVNIQNAFITLSSLDGPVAGTSTGFEYTAYLGAGKIYTVENSIVKQIANPLGGGQLVMAGQTARDASWPYTSSTAATFGVSGTKLEFIYGTTRVNSGNSWLQPVYNVSTITLGTPAIATPTLSATQSATDKQNRTLTYDLQQKVNVLDQDLMTKYKDWSENITIPANAKYTKGEVVNDAGQALPSTAYQVSYDEKTHQVKWHLTDAGIKSLPFKGETYHFKAQVQFSDDVDDQTKVTATGQTAIDKQTKTSNTVTNTIDNQATITVHHYMTDSTDKVAPDETVKVGYGKAYDVTKQVKTITGYKRNATLDEHTRGTASKTTKEAVMYYDPLPYNIHVNYLLTDGQKLDELDVTGLYGDTYTTEATDFEDLYTVDTDRLPTNAQGTVTEKPTTVNYYYQPTTGQWVDVGNQSSVLVRQDTKHNVRSVSQIYANDSGFTVKYNQDAAQVAIAASDTNGTQDNSLVFDYNSKYTFELSKNETVTFKVDDQGQVTATRVLGAEQTVTTFDKSGQLKTVTTVTNANGTKSQQTNTVDGLKSMVTGEQYDLGLLNGLKVTAQKEINPSQAATTESKTTTDTSQSGSNQSTSTTATDQTETNESTAGSSTNATNASSSVDASSANSQGDTEATSQSGTSASADSKTDSSVASSTSQTTDGKTDGETTNTGDTTTGTTTDSGLGFKSPFTEDQNTSSALGSAQTSSSLNSDTSAAVQALIAEPNSTPVVLGEDASFEEGVPVNDPVFSNDEGVSPNNNPSSAATPLAQATNTRARLTQNGKLLYEGTLKADQGEQNLYVSPDTTVEVDGGDDGDGFYLDTYDGDKGMAYTLGSGYAWAAENNDVTAAPASSATTSSESAASESNTNSSDSSRTASSAVDHSTSSASTSDASQSSHSTSSGESSHPESSSGSSTTSDSADADKQAAARSSQTQSNSVNGSSQAVSSSTVTSQSSVPTKANTKQASSTPTTKANRATVAAATSSTAPRQSRATTASASVPSVTSASAVAASRDKQQSAFKKQHPILNQILPKTNSAVATWLVWLGVGLLLLTVAITMVIKKRGRD”, the protein production was “failed”.

For “MRVLVLHSHPVEESYGKALYRQTVESLQKAGHMVDGCDLYEERFDPVLSRHDRLAYHDYPENLKLVESHVERLKAAEGLVICTPIWNFGFPAILKGYFDRVWLPGVSFELVNGKVESRLRHIRKLAAVLTYGATPFRAFAAGNPPKKIVKRVLRAQINPVRPVTFLAHYDMNNCTPETRAKFLARVGGAMERF”, the protein production was “failed”.

For “MTDLWLTLVNSVNAALGEVHVMTAWEALAVVLAMAYLLLAMKASVWCWAAAFTSTAIYTVLFWKVALLMESMLNIYYMGMALYGYWLWTQGGDKHQGVKVTTWPLKTHLKLIAATTLVSLGIGHGMATFTQASFPYLDAATTCFAVMTTYLVAKKVLENWLYWVVIDLVSIYLYLSKGLMLTSLLFVLYVGLAVVGYFLWRTALAESRLNLNGERAAKLLG”, the protein production was “failed”.

With “LESKIVDISTRFINTPIDDLDREIEAALQAIGAFVDADRSYVFLFDDEAATMSNTHEWRTEATASTQSRLQNIPYAETPWFMARMRRREGPLRVPRLEDLPPDAAGLRQRLEAGNVQSLLVLPMLNDQDLIGFVGFDAVRQQRDWDADTVMLLRVLSDAISNALQRKTAEKEMLAAKEEAEDANRMKS” the protein production was “failed”.

In the case of “MAVVSHGGFRAAARALDVSQGGLTKSIAALEQEYGVDLIERSAKGVLLTPKGAAFVPLARAIVEEAERAEGWLRAQSGELSTSVSLGVSIEPSIRLAPAVLRDFRKALPDTSVHLTQGVALDLLGALRENRIELAVIRLPRNFDSSDLKVQRLYQSEPVIVGRAGHPGAGAASLRELVKYDWVVVGDTSRQGAMNDDSIWELFDREGLGRPRFAAVCNSLLSIVAMLMESDALARVPRALLDHSLARRNLIPIPVAEPPVPYWIATVHKASRRLSPEAQTLNAMLSSYARISGALSPERRPGEP”, the protein production is reported as “failed”.

In the case of “MENWDLSSDEMQDGNAPELDVIEEHNPVTRDDENANPEEVVGDTRSPVQNILGKFEGDINKRLHIKRKRMETYIKDSFKDSNVKLEQLWKTNKQERKKINNKFCEQYITTFQKFDMDVQKFNEEQEKSVNNYQKEQQALKLSKCSQSQTLEAIKDMHENYMEGLMNLETNNYNMLFDVDGELRKEMSVFKKDLMKHTLKYSSSFPSSD”, the protein production is reported as “failed”.

In the case of “VFHRFNEPGSRSGYSLYVPEYYDPDREWPLVMALHGGSGHGRLFLWSWLRDARARGAIVVAPTATGRTWALMGEDVDSPNLARILDEVRGHWRIDPSRLLLTGLSDGGTFCYVSGLTSDSPFTHLAPIAASFHPLLAGAADSARLRGLPIQIVHGRHDWMFPVEVARQAHEALVSAGADVSYREIADLSHSYPREANVALLDWL”, the protein production is reported as “failed”.

In the case of “MKILTVNVHAWLEENQMEKIDILARTIAEKQYDVIAMQEVNQLMNNKIIFDDIREENYAWVLLETLQKYTDTDYYLHWSNSHIGFGKYNEGVAVITRHKIKAEDEFYCTFAQSVRTISARRIVSITINYEGQDIEFYSCHMNLPNCETEDMGKNIQTILNRTQNSNLKILMGDFNTDAIGNVAAYENILSQGLFDTYVMAEKKDDGITVDKSIHGWDNDKAKKRLDYIFSNKELKVKESKVIFNNKNKEIVSDHFGIEVKIEF”, the protein production is reported as “not failed”.

With “MGGASWADTAMGGKGRHPDKALTTVQVRALKVPGRYADGNGLYLVVEPSGSKRWLLRTIVQGRRRDIGLGGAGLVTLAEAREKALAYRKLARDGGDPLAERRKARATVPTFAEAAEQVHEEHKASWKNPKHAAQWITTLRTYANPHLGARRVDQIETPDVLRALSPIWLTKGETARRVRQRIGTVLDWAKAAGHRTGDNPVESVAKGLPKQGERDEHHAALPYAEVPAFVTRLQSSDHGEAARLAFEFLILTAARTSEVLRAEWREIDEAEALWTVPAARMKAGREHRVPLSKRSLEIVRRAKLLAGDSAFIFPGRSTGKPMSNMVFLMALRRMKLTVTAHGFRSSFRDWAAEATSLPREVAEMALAHTIENRVEAAYRRGDLLAKRREMMEQWSTFVASKPKGDKPHKSSA” the protein production was “failed”.

For “VATLYNDLKNKQTSVVEPKKPLPETWKNMHPCMVLNYMRPQCTFIVSGGTGTNQNNTFSMSVCVDNCEFNAEGPSKKAARYKLSALVCNKLFGTDYPQK”, the protein production was “failed”.
